Results: patent US20230399384A1 (University of Texas, published 2023)

Key:
[1] = biological target: T1, sCoV2-RBD (Fc-tagged RBD of SARS-CoV-2 S protein) (SARS-CoV-2; human, UniProt P0DTC2 319-541); assay: ELISA titration on coated sCoV2-RBD
[2] = biological target: T1, sCoV2-RBD (Fc-tagged RBD of SARS-CoV-2 …); assay: BLI (Octet) blocking of ACE2 binding to captured sCoV2-RBD
S protein of SARS-CoV = S protein of SARS-CoV (SARS-CoV, UniProt P59594 14-1195); assay: ELISA, purified IgG1 on coated S protein
[3] = biological target: T2, sCoV-RBD (Fc-tagged RBD of SARS-CoV S protein) (SARS-CoV; human, UniProt P59594 306-527); assay: phage ELISA, scFv on phage
[4] = biological target: SARS-CoV-2 S protein on live SARS-CoV-2-mNG reporter virus (SARS-CoV-2, UniProt P0DTC2 14-1273); assay: cell-based or functional assay
[5] = biological target: T2, sCoV-RBD (Fc-tagged RBD of SARS-CoV S …); assay: ELISA, purified IgG1 on coated RBD protein
[6] = biological target: SARS-CoV-2 RBD protein (Sino Biological, Cat: 40592-V08B) (SARS-CoV-2, UniProt P0DTC2 319-541); assay: BLI (Octet), mAb on Protein A sensor

| Binder | EC50 [1] | binding result (S protein of SARS-CoV) | binding result [3] | also measured |
| --- | --- | --- | --- | --- |
| CoV2-03 (antibody, V domains shown) VH: QVQLVESGAEMKKPGASVKVSCKTSGYTFTNSYIHWVRQAPGQGLEWMGWINPISGGTNYAQKFQGRVTMTRDTSINTAYMELSRLRSDDTAVYYCARDRGDYDYGWGTSPFYFDYWGQGTLVTVSS VL: not shown | 3.35 nM | no binding (tested: one concentration, not printed) | no binding | IC50 [2]: 14.8 µg/mL |
| CoV2-22 (antibody, V domains shown) VH: QVQLVQSGAEMKKPGASVKVSCKTSGYTFTNSYIHWVRQAPGQGLEWMGWINPISGGTNYAQKFQGRVTMTRDTSINTAYMELSRLRSDDTAVYYCARDRGDYDYGWGTSPFYFDYWGQGTLVTVSS VL: DVQMTQSPSSLSASVGDRVTITCRASQSISSYLNWYQQKPGKAPKLLIYGASSLESGVPSRFSGGGSGTDFTLTISSLQPEDFASYYCQQSYSIPFTFGPGTTVDIK | 3.41 nM | no binding (tested: one concentration, not printed) | no binding | – |
| CoV2-26 (antibody, V domains shown) VH: not shown VL: QSALTQPPSASGTPGQRVTISCSGSSSNIGSNSVNWYQQVPGTAPKLLIYANDHRPSGVPDRFSGSKSGTSASLAISGLQSEDEADYYCAAWDNSLKGVVFGGGTKVTVL | – | – | – | NC50 (neutralisation of reporter SARS-CoV-2, Vero E6 cells) [4]: 0.41 µg/mL |
| CoV2-06 (antibody, V domains shown) VH: QVELQESGPGLVKPSGTLSLTCAVSGGSISSNNWWTWVRQPPGKGLEWIGEIHHSGGTNYNPSLKSRVTMSVDKSKNQFSLNLYSVTAADTAVYYCTRDRAGGTYSGFDFWGQGTLVTVSS VL: QAVVTQPASVSGSPGQSITISCTGTSSDVGGYNYVSWYQQHPGKAPKLMIYDVSNRPSGVSNRFSGSKSGNTASLTISGLQAEDEADYYCSSYTSSSTVVFGGGTKVTVL | – | – | – | NC50 (neutralisation of reporter SARS-CoV-2, Vero E6 cells) [4]: 0.15 µg/mL |
| CoV2-09 (antibody, V domains shown) VH: QVQLHQWGAGLLKPSETLSRTCAVYGGSFSGYYWTWIRQAPGKGLEWIGEINHGGSTRYNPSLESRVSISVDTSKKQFSLELRSVTAADTAIYYCARGYDTNWYGDGYNWFDPWDRGTLVTVSS VL: QSALTQDPSVSVALGQTVRITCQGDSLRGSFASWYRQKPGQAPVLVIFGINNRPSGVPDRFSGSSSGNTASLTITGAQAEDEADYYCNSRESNSNRILFGGGTKVTVL | – | – | – | NC50 (neutralisation of reporter SARS-CoV-2, Vero E6 cells) [4]: 0.66 µg/mL |
| CoV2-14 (antibody, V domains shown) VH: EVQLQQSGPGLVKPSQTLSLTCAISGDSVSSNSAAWNWIRQSPSRGLEWLGRTYYRSKWYNDYAVSVKSRITINPDTSKNQFSLQLNSVTPEDTAVYYCAREEQQLVHDYYYYGMDVWGQGTMVTVSS VL: QAVVTQPASVSGSPGQSITISCTGTSSDIGAYNYISWYQQHPGKAPKLIIYEVSNRPSGISYRFSGSKSGNTASLTISGLQAEDEANYYCSSYAGSISFGGGTKVTVL | – | – | – | NC50 (neutralisation of reporter SARS-CoV-2, Vero E6 cells) [4]: 0.46 µg/mL |
| CoV2-16 (antibody, V domains shown) VH: QVQLHQWGAGLLKPSETLSRTCAVYGGSFSGYYWTWIRQAPGKGLEWIGEINHGGSTRYNPSLESRVSISVDTSKKQFSLELRSVTAADTAIYYCARGYDTNWYGDGYNWFDPWDRGTLVTVSS VL: QAVVTQPPSVSGTPGQRVTISCSGSSSSIGSNTVHWYQHLPGTAPKLLMYNNNERPSGVPARFSGSKSGTSASLVITGLQADDEAEYYCQSYDTGLSGHVFGSGTELTVL | – | – | – | NC50 (neutralisation of reporter SARS-CoV-2, Vero E6 cells) [4]: 0.82 µg/mL |
| CoV2-31 (antibody, V domains shown) VH: QVQLQQWGAGLLKPSETLSRTCAVYGGSFSGYSWTWIRQAPGKGLEWIGEINHGGSTNYNPSLESRVSISVDTSKKQFSLELRSVTAADTAVYYCARGYDTNWYGDGYNWFDPWGQGTLVTVSS VL: QAVVTQPLSVSVALGQTAKIPCGGNNIGRKSVHWYQQKPGQAPVLVIYRDNNRPSGIPERFSGSNSGNTATLTISRAQAGDEADYYCQVWDSNTGVFGTGTKVTVL | 58.1 nM | no binding (tested: one concentration, not printed) | – | binding result [5]: no binding (tested: one concentration, not printed) |
| CoV2-34 (antibody, V domains shown) VH: QVQLHQWGAGLLKPSETLSRTCAVYGGSFSGYSWTWIRQAPGKGLEWIGEVNHGGKTNYNPSLESRLSISVDTSKNQFSLELRSVTAADTAVYYCARGYDTNWYGDGYNWFDPWGQGTLVSVSS VL: DIQMTQSPSSLSASVGDRVTITCRASQKIDNFLNWYQQKPGKAPKLLIHGASNLQGGVSSRFSGSRSGTDFTLTITNLQPEDFATYYCQQSYNTPITFGQGTRLEIK | 6.67 nM | no binding (tested: one concentration, not printed) | – | binding result [5]: no binding (tested: one concentration, not printed) |
| CoV2-02 (antibody, V domains shown) VH: QVQMVQSGAEMKKPGASVKVSCKTSGYTFTNSYIHWVRQAPGQGLEWMGWINPISGGTNYAQKFQGRVTMTRDTSINTAYMELSRLRSDDTAVYYCARDRGDYDYGWGTSPFYFDYWGQGTLVSVSS VL: AIQMTQSPSSLSASVGDRVTITCRASQPISKYLNWYQQKPGKAPKLLIYAASSLQSGVPSSFSGSGFGTDFTLTISNLQPEDFATYYCQQSNGIPLTFGGGTKVDIK | 0.47 nM | no binding (tested: one concentration, not printed) | no binding | IC50 [2]: 17.7 µg/mL; Kd [6]: 7.85 nM; koff [6]: 0.000499 s⁻¹; kon [6]: 63500 M⁻¹ s⁻¹ |
| CoV2-05 (antibody, V domains shown) VH: EVQLVESGGGVARPGGSLRLSCAASGFTFDDYGMSWVRQVPGKGLEWVAGINWNGERIGYADSVKGRFTISRDNAKNSLYLQMNSLRAEDTALYYCARPSGDYVAWYFNLWGRGTLVTVSS VL: QAALTQPRSVSGSPGQSVTISCTGTGSDVGPYKYVSWYQQHPGKAPKLMIYDVNERPSGVPDRFSGSKSGNTASLTISGLQAEDEADYYCGSYAGNNKWVFGGGTKLTVL | 7.82 nM | no binding (tested: one concentration, not printed) | no binding | IC50 [2]: 4.18 µg/mL; Kd [6]: 7.16 nM; koff [6]: 0.000602 s⁻¹; kon [6]: 84100 M⁻¹ s⁻¹ |
| CoV2-19 (antibody, V domains shown) VH: QVQLVQSGAEMKKPGASVKVSCKTSGYTFTNSYIHWVRQAPGQGLEWMGWINPISGGTNYAQKFQGRVTMTRDTSINTAYMELSRLRSDDTAVYYCARDRGDYDYGWGTSPFYFDYWGQGTLVTVSS VL: AIQLTQSPSSLSASVGDRVTITCRTSHTVNSYLNWYQQEPGKAPKLLIYAASNLQSGVPSRFSGSGSGTDFSLTIHNLQPEDFATYYCQQSYRTPLTFGQGTKVDIK | 5.02 nM | no binding (tested: one concentration, not printed) | no binding | IC50 [2]: 14.5 µg/mL; Kd [6]: 138 nM; koff [6]: 0.00137 s⁻¹; kon [6]: 9870 M⁻¹ s⁻¹ |
| CoV2-24 (antibody, V domains shown) VH: QVQLHQWGAGLLKPSETLSRTCAVYGGSFSGYYWTWIRQAPGKGLEWIGEINHGGSTRYNPSLESRVSISVDTSKKQFSLELRSVTAADTAIYYCARGLVGGGAFDIWGQGTMVTVSS VL: NFMLTQPSSVSVAPGQTARITCGGDNIGSTGVHWYQQKPGQAPVLVVYDDTDRPSGIPERFSGSKSGNTAALTISGVEAGDEADFYCQVWDSSGHSYVFGTGTKVTVL | 29.7 nM | no binding (tested: one concentration, not printed) | no binding | – |
| CoV2-28 (antibody, V domains shown) VH: not shown VL: QAVVTQPASVSGSPGQSITISCTGTSSDVGGYNYVSWYQQHPGKAPKLMIYDVSNRPSGVSNRFSGSKSGNTASLTISGLQAEDEADYYCNSYTRSSTSVFGTGTQLTVL | 130 nM | no binding (tested: one concentration, not printed) | no binding | – |
| 07 (antibody, V domains shown, also called CoV2-07; phage clone 07) VH: EVQLVESGGGVFQPGRSLRLSCAASGFTFSDFGMHWVRQAPGKGLEWVAVTSHDGSSKFYADSVKGRFTVSRDNSKNKLYLEMNSLRVEDSAVYYCAKDSDNGYDADFFDYWGQGTLVTVSS VL: not shown | – | – | no binding | – |
| CoV2-23 (antibody, V domains shown) VH: QVQLVESGGGLVQPGRSLRLSCAASGFTFDDYAMHWVRQAPGKGLEWVSGISWNSGSIGYADSVKGRFTISRDNAKNSLYLQMNSLRAEDTALYYCAKDMDIWFGGGLDYWGQGTLVSVSS VL: DVQMTQSPSSVSASVGDRVTITCRASEGIGNWLAWYQQKPGKAPKLLIYEASSLQSGVPSRFSGSGSGADFTLTISSLQPEDFGTYYCLQANSFPITFGRGTKLEIK | 1.04 nM | – | – | – |
| CoV2-13 (antibody, V domains shown) VH: QVQLQQSGAEVKKPGSSVKVSCKASGGNFRSHTFSWVRQAPGQGLEWMGEIMPRFGATNYAQKFQGRVTITADESTGTTYMELSSLKSHDTAVYFCAADLGSGRKFDSWAQGTLVSVSS VL: NIQMTQSPSSLSASVGDRVTITCRASQGIGSDLGWYQQRPGKAPKRLIYAASSLQSGVPSRFSGSGSGTEFTLTISSLQPEDFATYYCLQHNSYPLTFGQGTKVEIK | 0.17 nM | – | – | IC50 [2]: 2.29 µg/mL; Kd [6]: 50.7 nM; koff [6]: 0.00103 s⁻¹; kon [6]: 20300 M⁻¹ s⁻¹ |
